Target: Fas on the cell surface of human Jurkat T cell line (human) (UniProt P25445)
Test: cell-based or functional assay

UniProt P25445, sequence (P25445 26-335): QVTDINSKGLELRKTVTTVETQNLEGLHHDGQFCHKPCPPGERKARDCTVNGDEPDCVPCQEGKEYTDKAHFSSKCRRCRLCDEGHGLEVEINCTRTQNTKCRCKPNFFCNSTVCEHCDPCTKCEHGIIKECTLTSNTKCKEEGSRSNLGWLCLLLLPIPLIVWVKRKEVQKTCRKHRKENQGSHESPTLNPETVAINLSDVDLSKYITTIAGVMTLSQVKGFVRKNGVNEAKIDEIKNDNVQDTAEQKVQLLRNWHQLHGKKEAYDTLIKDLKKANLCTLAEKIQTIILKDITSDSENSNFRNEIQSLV

dead cells (Propidium Iodide staining of Jurkat T cells after 24 hr): 87%
Substance: streptavidin-FasL fusion protein (SAFasL) (from UniProt P48023 103-281) (ligand)
cytotoxicity relative to the anti-Fas antibody: 3 times
